Assay results: the DeepSol protein solubility set

Assay: soluble on expression in E. coli; label from the status in PepcDB or PDB records
For “MPRKQLKGETHDQKAQIASAFGEIEQSKIFLDKRSESAAVKMDIADLLKEIIQKQLRKDYDPEVESNIFINPERGDFEVYILKKIVKEVDLPTIEIGLDEVRQIDDSLELGDYYEEGPIKLDDYLTRKSIQIIKQSVQKKVRDLERLAVYEECLEKVGEVVAGEVYQVRPNEVIFTYNTSKDHRVELVLPKSEMMKKDNPRRTPRMKLYVKRIEREKVKVRNDDGTVEEREKPDGGMKVIVSRVDDRFLYKLFESEVPEILDGLIVIKGIARVPGERAKVAVESTSSRIDPVGATVGYRGKRIQSIVKELNNENIDVIYYTDEPQVFIARALQPAKIDPMTVHADMKTRKARVMLKPDQIKYAIGKNGNNIHLAEKLTGYEIDVYRDVIDKSLEDPNDIDIIEFREEFGDDMIYQLLDGGLDTAKKILKGGVEKIEEALLGTQKSEELFVFNKTRKPVKPKERRITDDEKRYWKKIAETIYRTVREQFNDEDLKALLDDSHERSLKGDGIDPEEIRDKETNLEHHHHHH”, the “soluble on expression in E. coli” value was “not soluble”. In the case of “MPRLLPVDSCDTEEYTLTEPPRNPQEYLRFVQREASLCPDVVVAQIDPKKLKKQSVNVSITGCLAAPEGFSPSFKWQQQQVSRFSEVRQSVNKHRQHWKAQFLDDNVVMPKTEDEDGWKRFCLGENVCLEIQLKEEDGVNPGLDYVKTGFPPFLSIVSKLSQSTVSAVLEYLINWFEERAFVPQLGRWLYALLACLEKPLLPEAHSLIRQLARRCSAVRANLESKDDDRLSALNLMICIVARYFEQNDLADKE”, the “soluble on expression in E. coli” value is reported as “soluble”. For “MPRTVTHNPDSPNNDDVLAASEKWDACKPPYTSAHMKICVAAAKIILAASGVARCSKYEKENYLRIDFSKAGKVTFYAEFPKKMGLKGKKLGEWPELVIQLAREKALGMADGGLRAESVHAALEMYRDDPKPK”, the “soluble on expression in E. coli” value was “not soluble”. For “MPSETPQAEVGPTGCPHRSGPHSAKGSLEKGSPEDKEAKEPLWIRPDAPSRCTWQLGRPASESPHHHTPPAKSPKILPDILKKIGDTPMVRINKIGKKFGLKCELLAKCEFFNAGGSVKDRISLRMIEDAERDGTLKPGDTIIEPTSGNTGIGLALAAAVRGYRCIIVMPEKMSSEKVDVLRALGAEIVRTPTNARFDSPESHVGVAWRLKNEIPNSHILDQYRNASNPLAHYDTTADEILQQCDGKLDMLVASVGTGGTITGIARKLKEKCPGCRIIGVDPEGSILAEPEELNQTEQTTYEVEGIGYDFIPTVLDRTVVDKWFKSNDEEAFTFARMLIAQEGLLCGGSAGSTVAVAVKAAQELQEGQRCVVILPDSVRNYMTKFLSDRWMLQKGFLKEEDLTEKKPWWWHLRVQELGLSAPLTVLPTITCGHTIEILREKGFDQAPVVDEAGVILGMVTLGNMLSSLLAGKVQPSDQVGKVIYKQFKQIRLTDTLGRLSHILEMDHFALVVHEQIQYHSTGKSSQRQMVFGVVTAIDLLNFVAAQERDQK”, the “soluble on expression in E. coli” value was “soluble”. With “MPTFRSNIVVFNLIARRAFTTTSTKNMGFVEKVRLLDYWKIQDSALQSEFPRSRLVLMVDRRLLVTKDQPDVQMVELSFDDLKQRLGEYGLQFDLSNSCLLDALSTDVDMIPLFGTSIDAADPPEDSPISKKEVLKQLGNSLGGRFTDIRMAMLTMREERQRNLLAKFQSLTKWASIYRRCPKCAAALKMRSSKSGAECVTCQRVYYPTFSPVSITLITDPTNEHALLVRHRGSAGGVFTAVAGFAHSGESMAECARREIAEEVGIEVDSIRSLDMSQPWPMPDSSLMIAHVAVAKIDQKISVCPDELETAQWFTRHQVKEALTTTLADPLLKNLPRTLDDRQTLHYIPPAGAIAHQMIRQWVDGKLENHNSRI” the “soluble on expression in E. coli” value was “not soluble”. For “MPTIQQLVRKGRRDKISKVKTAALKGSPQRRGVCTRVYTTTPKKPNSALRKVARVKLTSQVEVTAYIPGEGHNLQEHSMVLVRGGRVKDLPGVRYKIIRGSLDTQGVKNRKQARSRYGAKKEKG”, the “soluble on expression in E. coli” value was “not soluble”. In the case of “MPTNNAPQVAINDIGSAEDFLAAIDATIKYFNDGDIVEGTVVKVDRDEVLLDIGYKTEGVIPSRELSIKHDVDPDEVVEVGDQIDALVLTKEDKEGRLILSKKRAQYERAWGAIEELKEKDEPVTGTVIEVVKGGLIIDIGLRGFLPASLVEMRRVRDLDPYIGQELEAKIIELDKNRNNVVLSRRAFLEQTQSEVRSEFLHQLQKGQVRKGVVSSIVNFGAFVDLGGVDGLVHVSELSWKHIDHPSEVVTVGDEVTVEVLEVDLDRERVSLSLKATQEDPWRVFARTHAVGQIVPGKVTKLVPFGAFVRVEEGIEGLVHISELAQRHVEVPDQVVAVGEEVMVKVIDIDLERRRISLSLKQADEDYTEEFDPSKYGMADSYDEQGNYIFPEGFDAETNEWLEGFDEQRQAWEARYAESERRFTAHTAQIERRRQQAEEAAAEAPAGNYSTDSAEDAPAAEAVEESAGSLASDEQLAALREKLAGNLEHHHHHH”, the “soluble on expression in E. coli” value is reported as “soluble”. With “MPTPAYIKIVGQTQGNITAGAFTADSVGNVFQQGHEDQILVQEIKHEVTTPTDPQSGQPSGQRVHKPFIFTSSLNKATPLMYQALATGEMLPTVEVSWYRTSSEGKQEHFFTTTLEDATIVSINTVLPHALDKDNENYTQLVEVSLAYRKITWAHDVANTEGSDDWRAPAA” the “soluble on expression in E. coli” value was “not soluble”. In the case of “MPTPDFVLQLREKIGNDPLFLPGVTAVVIKDVPEGAPITAVPEVLLVKRADNGEWTPVTGIVDPGEQPHSAAVREVKEETGLDVTVEALLGVGAVGPVTYPNGDVSHYMDTAMRCEVVGDSTPRIGDDENTEVRWFSVMQMPPMKPRFRLVVGDAVAQLRRPEGFRPRMGYEKRERRR”, the “soluble on expression in E. coli” value is reported as “not soluble”. In the case of “MPTPEDVPMDENDAGRVAEGSQDESKTPSREVLKKLLNEVEMAEMEENEMWYLISQKWWNSLIKAVRDGFVDDVGPIDNSQISECRNGSFFLKQRLAEQVDYTPVPEILFKRLERFYHIDDDRRDYIQRRVVRKDGKLCIEVYPRIVHITSARNRDIKADLVLRPDDTMVSLRERVIGELSLSTTDNIRFYVMNGENYELIDTAQSIDSYFDTVQKVVVDVEEDGEFFIKGKSATPKSLFGTQSSSSHGGNGISNSYNSPSPSTGVVTRTTPGACGLSNLGNTCFMASAFQCLSNMPPLREYFLANTYQNDINEDNPLGTHGHLAMAVGELMKGMWSGDYASINPRKFKSIIGQFAPRFNGYSQQDAHELMAYVLDGLHEDLNRIKKKPYIEDSDEDAKLPEAEYAAKSWEVYKMRNDSIIVDTLHGQLKSTLICPVCEKISIKFDPFGYLSLPLPPKEQIVKQTVIVMFLTRKWAKFSLGITDTTTVEEAERLMLDKLQPEQQHHFVFFHVPSQYHDDITMMRPGDRVRMPGREVYVAEVEHDLQVKGTRLFVAYNRIKLVRSASLPMIYSLPTGYPLTRGFLNDHVFSTTKHFFINPKAVAELGGGNSNDDDSMSGSNSADEREPYKLFVGPPGSTASLPIPPTDDPIPFPDENSHDIYSNFLQIVFQWKDLKIFNQYKGNELIEREMTVSTRRKVLLQETLDWFTTKEQLGEQDSWYCPQCKKHERATKQLALWKLPEILILHLKRFQYTKWSREKLTWEVVIPVRGLDLTDKVANPNHEKAIYDLIAVSRHYGSLSGGHYTAIGYNDREQKWFDFNDSSANPTYPPAEPYESSDPYILVYRRRKLDSNGKPIEPSAVSESLHSRPKRGAAPTISSATSSASSSRHQVDENMEMEED”, the “soluble on expression in E. coli” value is reported as “not soluble”. With “MPTPGTGSVPELQLVPFQLGHFPILQRWFATEKELVQWAGPALRHPLSLEQMHEDLAESRRRPPLRLLWSACRDDQVIGHCQLLFDRRNGVVRLARIVLAPSARGQGLGLPMLEALLAEAFADADIERVELNVYDWNAAARHLYRRAGFREEGLRRSATRVGRERWNVVLMGLLRQEWAAGGAGND” the “soluble on expression in E. coli” value was “soluble”. In the case of “MPTRKSKILDVALSNSVISNLNIMAPIGSSDHNTIKFTVQLLQNISVPKKMIPDFSKLDWPCCATYFENIEWGHIRTMFSQAVPTMPMPETSKPVPQYLRSFEQMVKNQFSKTIMSKTMNDFIEYIYLARKYRKKLRKYLSNLEVKLFKKKGNTLIDNDENEIVSELDKANLLASYFEAQYTNQNNTNFALDDDFVSDQPIPWVTDAEVLKVIMASKKSCSVTSDQVPFTFIKILSPLISSVLAQIFNLSMMRGQVPHAWTESIVIPLDKITNANNPTDFRPISLTSHLCRVYERCILAKIELFLIDNKFWSQNQHGFRPKKSTVTNMLESLNDWSKSIDLGEQIDIIYLDFSKAFDRLPHDLLLDKLVSLRMNKNLLIWLNEFLSNRSFRVRIGQTLSSRKLATCGVPQGAVLSPLLFGIYVNDISSILPEKVACKQFADDTKLYVSTPKTESENNLQSALDAVVDWTRGSKLTLNQSETVHVTVGKRRTDFKYHLDGYPIERKAITRDLGFLISEKLDFSEHWRKCINLAKFQLANMFNQYSTSNKKLMILLYKTFIRPRLEYGTVVSSPTKKSDEKAIESVQNAFTRRLYSRIKKRYINPTDKDYKTAMERNELFDLQTLSTRRKIIDRIQVIRMNNGKVDLKTSEFFEQQETHTRSKKKYIWSTVPIKHRVFQTFILLMVLVQFSIGLGNFARDIRNFGGAGSGNKTCDPSRDNDCDSPATVPSSTTKAPRYRNNTTESPPPTPPSSPPAPEGIYSFLQNNFIPRKINNLPVFQDVTTKGIQHVILVSSRLRTSLQTEKSRISQNSISYLIIDFLKSITLEIEALTNTSNCKPNSKDLRCPGKPLFCKFKNFDAAECKCSEPRAKVCKEDFEFDAQREYCTKSVKHPKDLRCEGELLFFKFHWNTTACHCINHQRDRVCAHDFQSDEDKKYQCNKKPTDLRCKKQKLYCKFHLDDKDCRCFESNQKACKKGVSGFYSSNDTLKFPSSIWRQFKLYFKKILQIFNRQMRGIFNVIHHRLHHSARKT”, the “soluble on expression in E. coli” value is reported as “not soluble”. In the case of “MPTTIEREFEELDTQRRWQPLYLEIRNESHDYPHRVAKFPENRNRNRYRDVSPYDHSRVKLQNAENDYINASLVDIEEAQRSYILTQGPLPNTCCHFWLMVWQQKTKAVVMLNRIVEKESVKCAQYWPTDDQEMLFKETGFSVKLLSEDVKSYYTVHLLQLENINSGETRTISHFHYTTWPDFGVPESPASFLNFLFKVRESGSLNPDHGPAVIHCSAGIGRSGTFSLVDTCLVLMEKGDDINIKQVLLNMRKYRMGLIQTPDQLRFSYMAIIEGAKCIKGDSSIQKRWKELSKEDLSPAFDHSPNKIMTEKYN”, the “soluble on expression in E. coli” value is reported as “soluble”. In the case of “MPVLHNRISNDELKAKMLAESEPRTTISFYKYFTIASPQQTRDALYQVFTALDVFGRVYLAHEGINAQISVPQSKLETFRQQLYTFDPALDGVRLNIALEDDGKSFWVLRMKVRDRIVADGIDDPTFDASNVGDYLKAADVNAMLDDPDAVFIDMRNHYEYEVGHFENALEIPADTFREQLPKAVEMLREHADKKIVMYCTGGIRCEKASAWMKHNGFNKVWHIEGGIIEYARRARAQGLPVRFIGKNFVFDERMGERISDEVIAHCHQCGASCDSHTNCKNDGCHLLFIQCPQCASKFNGCCSEQCCEELALPEEEQRRRRAGRENGNKIFNKSRGRLNSKLSIPDPAE”, the “soluble on expression in E. coli” value is reported as “not soluble”. In the case of “MPWIAKRRGHDADFFIMRIPRIYHPELLTSGTQISLCEDAANHIGRVLRMGPGQALQLFDGSNQVFDAEIISASKKSVEVQVMKGEIDDRESPLHIHLGQVMSRGEKMEFTIQKSIELGVSLITPLFSERCGVKLDSERLNKKRQQWQKIAIAACEQCGRNRVPEIRPPMALEAWCAEQDSGLKLNLHPRAHASINTLPLPVERVRLLIGPEGGLSADEIAMTARYQFTDILLGPRVLRTETTALTAITALQVRFGDLG”, the “soluble on expression in E. coli” value is reported as “not soluble”. With “MPYEADDYLSRHFQTSGTDLARKVDELAALAAPGDSPNLALYREMLFTVTRMAQADRNRWDAKIMLQTLREMEHAFSVLEQFKRRRKVTVFGSARTPVEHPVYALARKLGEELARYDLMVITGAGGGIMAAAHEGAGLENSLGFNITLPFEQHANHTVDGSGNLLSFHFFFLRKLFFVKEADALVLCPGGFGTLDEALEVLTLVQTGKSPLVPIVLLDQPGGRYWEHALEFMQEQLLENHYILPADMRLMRLVHSAEDAVKEIAQFYRNFHSSRWLKGTFVIRLNHALNEAALAHLHEHFASLCLSGGFQQQAYSEQEQDEPEFRNLTRLAFVFNGRDQGRLRELLDYINLPENWD” the “soluble on expression in E. coli” value was “not soluble”. In the case of “MPYLNADRGKSGGYHIGHTLLWSSGKSRLEAIRYHVETSALEKIMFARLLSSERDEYSSEETEHRFDEGLQIYGYSPEDVSKARNKMAGFLAGWRHAVSVRRASMEQSADTEQ”, the “soluble on expression in E. coli” value is reported as “soluble”.
